Data published in patent US20240166768A1 (YEDA RESEARCH AND DEVELOPMENT, published 2024).

B1: T12 (antibody, human IgG1, V domains shown)
VH: EVQLVESGGGLVQPGGSLRLSCAASGFTFNNHDMHWVRQVTGKGLEWVSSIGNFGDTYYSGSVKGRFTISRQDAKNSLYLQMNRLRVGDTAVYYCARGRAVAGNPLDVWGKGTTVTVSS
VL: EIVMTQSPATLSVSPGETATLSCRANQTLYNNLAWYQQKPGQAPRLLIYSGSTRATGIPARFSGSGSGTEFSLTISSLQSEDFAVYYCQHYTPWPPYTFGQGTKVDFK
B2: T13-GL (antibody, human IgG1, V domains shown)
VH: EVQLVESGGGLVQPGGSLRLSCAASGFTFSSYDMHWVRQATGKGLEWVSAIGTAGDTYYPGSVKGRFTISRENAKNSLYLQMNSLRAGDTAVYYCARGIAVAGFPLDVWGKGTTVTVSS
VL: not shown
notes: also called germline version of T13

What was measured:
[1] = target: T1, ROI-1 peptide of MMP14 (I-A loop); test: peptide validation ELISA: antibody plated, biotinylated peptide titrated, streptavidin-HRP; the concentration is that of the peptide
T1 construct: also called 'ROI-peptide'; 'Peptide (ROI)'

[2] = target: BSA (bovine, UniProt P02769); test: dose-response ELISA, O.D. 630
Method: ELISA reactions were carried out using flat-bottom MaxiSorp™ 96-well plates (Invitrogen). Antigen coating was performed in PBS at 1001 per well and left overnight at 4° C. For standard dose response ELISA assays, antigens were plated at a concentration of 1 μg/ml. For comparative ELISA assays with multiple antigen targets, antigens were plated at a constant molar concentration of 50 nM. The plates were washed 5 times with washing buffer (1×PBS with 0.05% Tween-20 (Sigma-Aldrich)) and incubated with 1001 blocking buffer (1×PBS with 1% BSA) for 1 h at room temperature. The blocking solution was subsequently replaced by serial dilutions of either mono- or polyclonal antibodies or serum samples for 2.5 h at RT. For standard dose response ELISA assays, antibodies were introduced over a range of dilutions whereas for ELISA screens, antibodies were introduced at 100 nM. Serum samples were assayed at a dilution of 1:100. Plates were washed 5 times with washing buffer and then incubated with anti-human IgG secondary antibody conjugated to horseradish peroxidase (HRP) (Jackson Immuno Research) in PBS at a 1:5,000 dilution. After washing the plates for additional 5 times, the plates were developed using TMB (Thermo Fisher) and absorbance was measured at 630 nm with an ELISA microplate reader (Synergy HTX plate reader, Biotek). […]

BSA, sequence (P02769 25-607 limits assumed): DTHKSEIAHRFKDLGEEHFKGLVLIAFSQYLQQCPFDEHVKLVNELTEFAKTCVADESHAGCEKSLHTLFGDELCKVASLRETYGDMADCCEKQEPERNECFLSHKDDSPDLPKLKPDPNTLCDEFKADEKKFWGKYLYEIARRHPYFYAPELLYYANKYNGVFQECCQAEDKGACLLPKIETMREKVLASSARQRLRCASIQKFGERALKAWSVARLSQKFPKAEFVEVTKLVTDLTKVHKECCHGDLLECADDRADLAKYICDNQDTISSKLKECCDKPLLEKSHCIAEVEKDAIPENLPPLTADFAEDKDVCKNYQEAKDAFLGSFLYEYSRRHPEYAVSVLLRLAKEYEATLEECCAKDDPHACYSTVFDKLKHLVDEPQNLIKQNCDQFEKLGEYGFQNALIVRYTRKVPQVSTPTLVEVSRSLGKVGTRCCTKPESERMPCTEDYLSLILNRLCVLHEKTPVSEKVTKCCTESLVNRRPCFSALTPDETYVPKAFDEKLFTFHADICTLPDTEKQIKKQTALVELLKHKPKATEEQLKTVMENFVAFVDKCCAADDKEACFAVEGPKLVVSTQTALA

Binder	EC50 (read off the curve) [1]	binding result [2]
B1	~4 µg/mL	
B2		no binding (tested: about 500 nM)
